Kd data for two molecules are collected here from publication PMC10630886, “Downregulation of stromal syntenin sustains AML development” (EMBO Molecular Medicine, 2023).

Experiment [1] has as its target biotinylated peptide corresponding to the last 25 amino acids of endoglin wild-type. The experiment is described as follows: SPR; BIAcore T200, 25°C; 100 RU of biotinylated endoglin peptide immobilised on a streptavidin chip; His-tagged protein perfused (0.5 to 120 μM) at 30 μl/min in 10 mM HEPES pH 7.4, 150 mM NaCl, 0.005% Tween 20; apparent KD from equilibrium responses, Langmuir isotherm. A general note: In SPR one partner is held on a chip, and binding of the other changes the refractive index at the surface.

In experiment [2] the target is T1, 6xHis-tagged GIPC1 construct (UniProt O14908 1-333).
T1 construct: also called recombinant GIPC1; source: recombinant; prepared as described previously (PMID: 27386966)
T1 sequence (looked up): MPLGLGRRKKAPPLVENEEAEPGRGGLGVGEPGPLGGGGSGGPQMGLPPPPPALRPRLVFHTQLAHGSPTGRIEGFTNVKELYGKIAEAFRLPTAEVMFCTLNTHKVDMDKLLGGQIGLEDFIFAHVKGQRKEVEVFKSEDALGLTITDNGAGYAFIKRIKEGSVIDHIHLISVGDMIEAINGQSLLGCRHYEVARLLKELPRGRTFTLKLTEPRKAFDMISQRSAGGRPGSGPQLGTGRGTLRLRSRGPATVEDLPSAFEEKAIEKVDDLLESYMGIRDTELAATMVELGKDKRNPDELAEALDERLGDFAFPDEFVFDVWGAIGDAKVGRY
The description is as above. To be noted: both partners purified.

No end group written: not given here.

With “6xHis-tagged syntenin construct (containing the two PDZ domains and the C-terminal domain) (domain or fragment)”, the Kd in experiment [1] was 27.1 µM.

B1: biotinylated peptide corresponding to the last 25 amino acids of endoglin wild-type (peptide)
peptide: SSESSSTNHSIGSTQSTPCSTSSMA
modifications: also: biotinylated, position not given here
notes: endoglin (CD105), last 25 C-terminal amino acids, wild type; also called endoglin cytosolic domain; immobilized peptide corresponding to the last 25 C-terminal amino acids of wild-type endoglin
B1: in experiment [2], the Kd came to 2.4 µM.
